Experimental findings from US20120276537 are described below.

This data set deals with ZFNRosa (Rosa26-specific zinc finger nuclease pair) (synthetic construct). The data set is described as follows: cell_activity. To be noted: mouse zygote mRNA microinjection; 13 of 58 pups lost XbaI site; ZFN pair, half-sites of the monomers not stated; homologous recombination also seen (pup 22 …).

Regarding “TGCAACTCCAGTCTTTCTAGAAGATGGGCGGGAGTC (double strand) [Rosa26 intron 1 ZFN target site]”, the activity (% of pups with NHEJ XbaI loss) was 22.
